From a protein production outcome set (Wang et al. 2014)

Assay: label from the status in PepcDB records

| Sequence | protein production |
| --- | --- |
| EKAVLIGEKEADITFVTWGSQKGPILDVIEDLKEEGISANLLYLKMFSPFPTEFVKNVLSSANLVIDVESNYTAQAAQMIKLYTGIDIKNKILKYNGRHMTEDEILKSAKEILNK | not failed |
| GSSGSSGMSNTTWGLQRDITPRLGARLVQEGNQLHYLADRASITGKFSDAECPKLDVVFPHFISQIESMLTTGELNPRHAQCVTLYHNGFTCEADTLGSCGYVYIAVYPTQR | not failed |
| APIPERAQVSVPGPVRVVDFDTPQSVALFVQPGIDRDDPDFFTAYILNHIIGGGGFESRLMQEVREKRGLTYGVYSYLLPKDLASIYMGSVASANDKIAEAVNVIRDVWRDVAANGVTAKELEDAKTYLTGAYPLRFDGNGRIANILAGMQIQGLPIDYIATRNDQVNAVTLEEINTFAAGFLDPEGLSFTVVGKPVGL | failed |
| MYINHAAEMLLCNSSVVVRCRATRGVSESLARPGGVTMHKRLTEETHHSAGSPEQPEIAGLHRELAEARQALETLYAALDNVDAGLLILNEELRAVYSNPVLHVMFRANSAEEIRQNRPLYAEMLAASAQAVAVNLEDYVSRRLAWVQSGDPKPMDLAMTDGTALRCHLAVLPGGGRMLIYSDVTDIVRNAEELERLATTDGMTGVYNRRHFLTLADREWSRARRYERPMSFLMIDIDYFKAINDGFGHQVGDEMIVHLARLARDCKRDCDVLARLGGEEFALLLPETDLAQAEVVAERLRREVAGNALVVASHAIPATVSIGVATALPGMKDVSDLMKAADQALYDAKHAGRNRVICRACHDPAPTLVPALTPRCEAATMR | failed |
| MIQLKNVGITLSGKGYERFSLENINLEVNGEKVIILGPNGSGKTTLLRAISGLLPYSGNIFINGMEVRKIRNYIRYSTNLPEAYEIGVTVNDIVYLYEELKGLDRDLFLEMLKALKLGEEILRRKLYKLSAGQSVLVRTSLALASQPEIVGLDEPFENVDAARRHVISRYIKEYGKEGILVTHELDMLNLYKEYKAYFLVGNRLQGPISVSELLESSIVEGERNDALLVLDIMDKKVSIVKGDLGMKFGALGSLNRIYGIIGA | not failed |
| MEDIYKLIDDINLQKIENLDSRVNEALSSNNDDALFILGETLYNFGLTPQGLEVFRTLYHKYPDESELLIYFIEGLMSENQTDEALEYLAQVEPSTEKLMLEADLYQQINMLEVAIDKLQEALDLEPNDPIIHFALAELLYYDGQYLRATREYETVLETGEYEVNGVNIFSRMADCSLQSGNYSDAISLFDEINEEEMNSEDYFKKSIAYEKNDLTQEAIKIMQTLLSKDPDFIQGYFYLQSLFENEKNYPDAIETGKEGLRLSQFYKELMVSTGSLEIEHGDANEGVELLKQALEVDNAYHEPLLILSDLYRNEEDYESIIQLLTYVDEEDLDPIFMWHLAYAYGQEERDKEAQHFFELAYPTLQTQVEFLSDYYFYLLEIGQKEKAILILNQLLEIDPSNENWHDESMRLQI | failed |
| MNISLSRVHFPVTTLGPGQRLGLWFQGCSIRCAGCISADTWGPGKHPLPLAQVLDDLQPWLARAEGITLSGGEPFDQPEALLALLRGLRERTGVDILVYSGHSLETLQPLLQQAEGLLDALICDPFEQQQAQTLVLRGSDNQRLIFLTELGRQRLSTYQRPLHHEDRALDVMFDDDGSVWMAGIPRRDDVLRLRDLLHDQGHQLQISAHTSRRRLEHHHHHH | failed |
| MPPGTTLQGGKYRLEQVLGQGGFGITYLGSQTQLGARVAIKELFPSGSTRQSGQYVLPPAGTDPAGWAQAKQDFTAEGRTVARFNHPDIVRVMDLFEENGTAYLVMEFLEGQTLGSAIEKRGPLPPDEVVNIAKRVLGALSVVHSAGMLHRDIKPDNIYLDKAGRTVLIDFGSARTFAAGQTVSHTRLVTPGYAPLEQYSGSAKFGPYTDIYALGATLYHALTGHPPTPATDRTMGTPLAPLPPNTPPALREAIERSLAIKINERPQSTQEVLALLNQVSVAPQSAPAAPAPRPTPPQRNQTFPPAPQPTPQRQPQRPPQPVPQPPAQRRRGPGCGCLFPLLLLGGLALYGMNVLGPLLSPSQTETTTTSEQTQPEPPAQTPTTPTEDPTIPQAPGTTDSGQDWQSGDSIDLGLPGSNGETPAQTDNTATPETTTQGNAGTETNPTTTPETNTSTAPTSGELVVTAPNVTLRSAADAAANSLGTLAAGSTVQILQTQDGWYEVQTTSGQRGWVGTDAALPPVSAEALKALQTAAGQGGDVQLSPGVYRLQEPLVLSQDAHLTGAGRDRTWITSAAGNAVLTTRGNVSLQGVTVGWTGQTPGGALLAEGGTVTLRDARLTGGVRDETRNESGSGLQLSQGAQGDVQGSDLVGNAYGASVSDTAQLKLKDSTLSDNSLGGAIFLDSSGGEVRGSTLERNGGDGLTVRHTAAPVIVDSELRDNGERGLSVEGQAKPTVKRVTASGNTLQGIGVQDDAQPQLSNNKLTGNGQEGLTYADRAGGRASENELSGNQVGIAVQGSAAPELRTNIIRDSRDAGLSYAGQAGGTARGNTITGSAKPGISLWGEAQPTLSSNVIQGGAQSGIVFAEHAGGTLDSNEVLGNALSGLVVRDTAAPEVRGNTFQDNGKAAMVYEGEAGGRVSGNTCQGNGSDVIELHLTSVLAGPDLSGASCAVQTQGNW | failed |
| GQRVLFGSGEAAQNLAAEISRLDAKNVMVVAGDFELPMARQVAADIDVKVWHSNVVMHVPIETAEEARSVAKENDIDVVVCVGGGSTTGLAKAIAMTTALPIIAVPTTYAGSEATNVWGLTEAARKTTGVDNKVLPVTVIYDSALTMSLP | not failed |
| MISQASRFAPDQPPKLSCEYLTERVRALFGPHPFASQMSGDQVASLLPEYLAMSQAFPYLQAGSQRDLIFDAMHQNRDIGRDIELTSVVANFICWDETGGHGGILRGGKAALPDILLTENFHSNLLRKDAARLLGRAIRPNYSDRTKQYLHSLYAGLSSKDPLVRCAYMVAFELHAADMIQSLWTTLVKTFKARPDDLEYFRGHVGGEDPAEKYHGEMTGRLIGELVQPGLNDRFLNEFGRAYRLSVQWCRDLLGTAARTGDDHSEMQHHGRCHCGAIKFYVNAPRELSAVRCNCSICQMSGFVHLLVPGDKLRIECGEEFLTTYQFNKNIARHTFCRLCGVKPFYRPRSNPSGYSVNIRCLDRKTIEHLRISEFDGAHWEQAFLSMQQDPESCFEDQRSELEWRAQ | failed |
| MAYDDIVSSMVLELRRGTLVMLVLSQLREPAYGYALVKSLADHGIPIEANTLYPLMRRLESQGLLASEWDNGGSKPRKYYRTTDEGLRVLREVEAQWHVLCDGVGKLLETNGEDREHAER | not failed |
| MPTPADDLVVIGKIVSVYGIRGEVKVYSFTDPLDNLLDYRRWTLRRDGEIRQAELVRGRLHGKVLAAKLKGLDDREEARTFTGYEICIPRSELPSLEEGEYYWHQLEGLKVIDQGRQLLGVIDHLLETGANDVMVVKPCAGSLDDRERLLPYTGQCVLSIDLAAGEMRVDWDADF | not failed |
| SETRSPGLNNMKPQSLQLVLEEQVLALQQQMAENQAASWRKLKNSQEAQQRQATLVRKLQAKVLQYRSWCQELEKRLEATGGPIPQRWENVEEPNLDELLVRLEEEQQRCESLAEVNTQLRLHMEKADVVNKALREDVEKLTVDWK | failed |
| MPNLSCGVDNCAYNQNDMCSLNSIKVNGSFANHSEATCCGSFVEKGGFTNAAVDMGPAEPATSVACEAEKCCYNKNCKCHAESIDISGDYAQHQDNTECSTFRQELEHHHHHH | not failed |
| MKEALKKYNLPIVFVITYVFGCVFAMLCQNTAGEVIMNLLIFALIVLVIYAIIFNYVMYSKMSFGQNFLYILFSSIIYIFGLIFVMILSAVIGDSINNSNDDFGFLLMMFGTSFTMGIFFAYLIPIVPSAIVKLLCGHEKK | failed |
| MAGSGVPSHRSMVIKVSVFAVVMLLVAAGLVVVFGDFRFGPTTVYHATFTDASRLKAGQKVRIAGVPVGSVKAVKLNPDHSIDVAFAIDRSYTLYSSTRAVIRYENLVGDRFLEITSGPGELRKLPPGGTINVAHTQPALDLDALLGGLRPVLKGFDADKINTITSAVIELLQGQGGPLANVLADTGAFSAALGARDQLIGEVITNLNAVLATVDAKSAQFSASVDQLQQLVSGLAKNRDPIAGAISPLASTTTDLTELLRNSRRPLQGILENARPLATELDNRKAEVNNDIEQLGEDYLRLSALGSYGAFFNIYFCSVTIKINGPAGSDILLPIGGQPDPSKGRCAFAK | failed |
| MRKLISIFLILCTFLLCGCSDVKHELNRLSLVLCSGIDLSEDGRYIYTVEILNVGASSPQSSGKQGASPSINVFSSEGHTITEAFNNASVLSGEPLFFAHSRMVVVGERLAKYGLSDMMDKLFRHYTIRPDGLIFVTKGNARDIVSTYTPDQPLPAEKLRTMSMLQEMTGYSISYSRLDLVKALTSKSHAGAIGLISLRPDQKFSNRFNMYGAGVFKKDKLVGYLDTYETRGLQWVTGHISSGSILVPLPDGKRIVFDIIDSKSKIKTKVNGNKLTMEINVAEESLISETNDKTNVMKHYKEMNKLAKLESEAIKKEVSSALAASQDRLKTDIFGFGSEIYRDNPKYWKTVENNWDNIFPNVNVKINVKCIVRRPGLTSQPII | failed |
| MKLKTKTMEWSGNSLKLLDQRKLPFIEEYVECKTHEEVAHAIKEMIVRGAPAIGVAAAFGYVLGLRDYKTGSLTDWMKQVKETLARTRPTAVNLFWALNRMEKVFFENADRENLFEILENEALKMAYEDIEVNKAIGKNGAQLIKDGSTILTHCNAGALATVDYGTALGVIRAAVESGKRIRVFADETRPYLQGARLTAWELMKDGIEVYVITDNMAGWLMKRGLIDAVVVGADRIALNGDTANKIGTYSLAVLAKRNNIPFYVAAPVSTIDPTIRSGEEIPIEERRPEEVTHCGGNRIAPEGVKVLNPAFDVTENTLITAIITEKGVIRPPFEENIKKILEV | not failed |
| MPGDTENTSTDTTNEHIDLALYRQLVKQFIDMRRYSTALFWAEKVAVLGGLEPRDIYYQAQCMYLLGEYHRAAHTIQHHKLEKNSLPCFNLLLESLYAAKEFTEAANVIQNVEVEVMTTSLINQPVDASSGCYLESNSVFGGEENHRNELLSSIYLMKGKVYEALDNRGMAMDFYVQALHKSIYCFEALEALVQHEMLMAWEEFELMHHLPLAQQSSEADAKFILKLYESRLKKYYELISARNAEEMSPIVNPDILQFIKEFTARVQQSGSSDTQMPKVSAVKVPLTPSQFMSPAQKVLEDLKAPTFSLQTSLSKASSLIDASHRSMFDSSSRRRSRDHDTDTLIPIAECLDRVQRSTDLMAAEAEKCFYDCDYKQCLKILNELLKVDPFHNTALTIQIACLVENGDFNRLFYVAHKLVDRYPDKAISWYAVGCYYDMIGKSDPARRYLSKATALDRLYGPAWLAYGHSFANENEHEQAMAAYFKATQLMRGCHLPLLYIGVECGLTKNLELAEKFFLQAMNIAPLDVYVLHELGVIKYEYEFFDGAATIFQCTVDIVKQRAKSNNEEISSRWEPLFINLGHSLRKVHKYEEALYNFQYALLLKPQSPTTYTSIGFIHALLGNLDPAIEAFHKSLALNRDCIVTSTILKSCIEDLMDDSATIDEICSAALRDVAKNITANSRRVLNSDKFNGMKLKFDEEEEFANSDSNMVVEMSFDT | failed |
| MTQKEWPLWEVFVRSKQGLEHKHCGSLHATDAQQALHMARDVYTRRQEGVSIWVVPSTAITASAPEEKPELFDPMADKIYRHPTFYQLPDEVNHM | not failed |
| MYHGMNPSNGDGFLEQQQQQQQPQSPQRLLAVILWFQLALCFGPAQLTGGFDDLQVCADPGIPENGFRTPSGGVFFEGSVARFHCQDGFKLKGATKRLCLKHFNGTLGWIPSDNSICVQEDCRIPQIEDAEIHNKTYRHGEKLIITCHEGFKIRYPDLHNMVSLCRDDGTWNNLPICQGCLRPLASSNGYVNISELQTSFPVGTVISYRCFPGFKLDGSAYLECLQNLIWSSSPPRCLALEAQVCPLPPMVSHGDFVCHPRPCERYNHGTVVEFYCDPGYSLTSDYKYITCQYGEWFPSYQVYCIKSEQTWPSTHETLLTTWKIVAFTATSVLLVLLLVILARMFQTKFKAHFPPRGPPRSSSSDPDFVVVDGVPVMLPSYDEAVSGGLSALGPGYMASVGQGCPLPVDDQSPPAYPGSGDTDTGPGESETCDSVSGSSELLQSLYSPPRCQESTHPASDNPDIIASTAEEVASTSPGIDIADEIPLMEEDP | failed |
